These results are taken from patent US20220160699, “MODULATORS OF TDP-43” (Alteron Therapeutics, Inc., published 2022).

For this data set, the target named is TDP-43 (TARDBP) (UniProt Q13148 Q13148:1-414). Briefly: pulldown; streptavidin bead pulldown and anti-TDP-43 Western; 20 mM HEPES pH 7.5, 0.3% CHAPS, 150 mM NaCl, on ice/4 C; binding blocked by 30 uM ALT-59, and complex displaced by ALT-59. Conditions: tags: N-terminal His-Sumo, expressed in E. coli Rosetta (DE3) from pSumo/TDP43; label: 3' biotin. As to the method:
Additional experiments were performed to confirm the direct binding of ALT-59 to TDP-43. One microgram of purified His-Sumo-TDP43 was incubated with 1 μg TG₁₂-biotin ([…]-biotin (SEQ ID NO: 1)) in binding buffer containing 20 mM HEPES, pH 7.5, 0.3% CHAPS, 150 mM NaCl, (Sigma-Aldrich), and protease inhibitor cocktail (Roche) for 4 hours on ice in the presence of carrier (50% Cremophor EL, 50% absolute ethanol) or 30 μM ALT-59 dissolved in carrier. Streptavidin magnetic beads (20 μl settled beads, GE Healthcare Life Sciences) were added to pull down the DNA-protein complex by rotating at 4° C. for 2 hours. After being washed 5 times with binding buffer, samples were boiled in protein sample buffer. In another experiment, DNA-protein complex bound to Streptavidin magnetic beads were washed and split into three parts, two of which were incubated with either carrier or ALT-59 for 4 hours with rotation at 4° C. to elute TDP-43 from TG₁₂-biotin-streptavidin. The third part and elutes were mixed with protein sample buffer and boiled. Protein samples from the above experiments were loaded onto 4-20% Tris-glycine gel (Invitrogen) for fractionation. Western blotting was performed using anti-TDP-43 antibody (Proteintech Group).

Chain of TDP-43 (TARDBP) (Q13148 whole entry, one chain of several): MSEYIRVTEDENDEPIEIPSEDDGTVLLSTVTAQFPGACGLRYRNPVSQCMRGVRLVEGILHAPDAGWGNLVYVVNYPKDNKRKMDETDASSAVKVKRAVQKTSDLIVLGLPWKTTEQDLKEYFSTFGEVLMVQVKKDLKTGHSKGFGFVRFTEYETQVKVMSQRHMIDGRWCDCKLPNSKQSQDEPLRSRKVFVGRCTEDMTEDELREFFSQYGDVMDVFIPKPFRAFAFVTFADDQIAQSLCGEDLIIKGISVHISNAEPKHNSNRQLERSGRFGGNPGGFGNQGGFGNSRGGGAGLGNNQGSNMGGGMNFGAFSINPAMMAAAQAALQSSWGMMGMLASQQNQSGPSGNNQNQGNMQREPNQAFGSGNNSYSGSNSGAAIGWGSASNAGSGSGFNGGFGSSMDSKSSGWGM

B1: TG12-biotin (ssDNA)
DNA: TGTGTGTGTGTGTGTGTGTGTGTG
Regarding B1, the binding result is on record as “binds”.
